Legend:
[1] = target: SSB (single-stranded DNA binding protein) (UniProt P0AGE0 P0AGE0:2-178); experiment: covalent crosslinking with NHQM + 365 nm UV, denaturing TBE-urea gel shift; 1.5 uM DNA, 0.2 mg/mL SSB, 37 C 30 min; no crosslink with BS3 or UV alone; details: chain copies: 4
[2] = target: the molecule itself; experiment: NHSF or BS2G cross-linking of purified GST; SDS-PAGE and Western blot under reducing and denatured conditions (homodimer)

Sequence of SSB (single-stranded DNA binding protein) (P0AGE0 2-178, one chain of several): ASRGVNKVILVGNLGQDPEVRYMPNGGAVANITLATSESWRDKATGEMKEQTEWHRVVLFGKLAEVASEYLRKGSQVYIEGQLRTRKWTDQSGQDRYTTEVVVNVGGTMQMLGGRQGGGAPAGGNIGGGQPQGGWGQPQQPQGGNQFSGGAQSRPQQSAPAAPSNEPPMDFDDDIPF

Row | Binder | binding result [1] | binding result [2]
1 | 19(3x) (ssDNA) DNA: TGTAGCTGTTGATCTAAGTTGTAGCTGTTGATCTAAGTTGTAGCTGTTGATCTAAGT | binds | –
2 | ATC(4x) (ssDNA) DNA: AATTCGCCAATGACAAGACGCTGGGCGGGGCCGGATCCATCATCATCATCTAGAAGCT | binds | –
3 | E. coli wild type glutathione S-transferase (GST) (enzyme, Written as the single subunit) MKLFYKPGACSLASHITLRESGKDFTLVSVDLMKKRLENGDDYFAVNPKGQVPALLLDDGTLLTEGVAIMQYLADSVPDRQLLAPVNSISRYKTIEWLNYIATELHKGFTPLFRPDTPEEYKPTVRAQLEKKLQYVNEALKDEHWICGQRFTIADAYLFTVLRWAYAVKLNLEGLEHIAAFMQRMAERPEVQDALSAEGLKHHHHHH | – | binds

From US20220107327A1, “MULTI-TARGET CROSSLINKERS AND USES THEREOF” (The Regents of the University of California, published 2022)
